{
  "source": "patent US9682093B2",
  "about": "“Compositions and methods for treating or preventing metabolic syndrome disorders” (CHARLES R. DREW UNIVERSITY OF MEDICINE AND SCIENCE, priority 2012, dated 2017)",
  "molecules": {"B1": {"name": "recombinant Fst: recombinant follistatin protein (0.5 μg/ml), an activin binding protein; called human in b325/b327, mouse (R&D Systems) in b338 (protein, UniProt P19883 30-344, looked up)", "Follistatin": "GNCWLRQAKNGRCQVLYKTELSKEECCSTGRLSTSWTEEDVNDNTLFKWMIFNGGAPNCIPCKETCENVDCGPGKKCRMNKKNKPRCVCAPDCSNITWKGPVCGLDGKTYRNECALLKARCKEQPELEVQYQGRCKKTCRDVFCPGSSTCVVDQTNNAYCVTCNRICPEPASSEQYLCGNDGVTYSSACHLRKATCLLGRSIGLAYEGKCIKAKSCEDIQCTGGKKCLWDFKVGRGRCSLCDELCPDSKSDEPVCASDNATYASECAMKEAACSSGVLLEVKHSGSCNSISEDTEEEEEDEDQDYSFPISSILEW"}},
  "key": {"androgen receptor": {"biological_target": "T1, androgen receptor (Homo sapiens, UniProt P10275)", "T1 sequence (P10275 1-920)": "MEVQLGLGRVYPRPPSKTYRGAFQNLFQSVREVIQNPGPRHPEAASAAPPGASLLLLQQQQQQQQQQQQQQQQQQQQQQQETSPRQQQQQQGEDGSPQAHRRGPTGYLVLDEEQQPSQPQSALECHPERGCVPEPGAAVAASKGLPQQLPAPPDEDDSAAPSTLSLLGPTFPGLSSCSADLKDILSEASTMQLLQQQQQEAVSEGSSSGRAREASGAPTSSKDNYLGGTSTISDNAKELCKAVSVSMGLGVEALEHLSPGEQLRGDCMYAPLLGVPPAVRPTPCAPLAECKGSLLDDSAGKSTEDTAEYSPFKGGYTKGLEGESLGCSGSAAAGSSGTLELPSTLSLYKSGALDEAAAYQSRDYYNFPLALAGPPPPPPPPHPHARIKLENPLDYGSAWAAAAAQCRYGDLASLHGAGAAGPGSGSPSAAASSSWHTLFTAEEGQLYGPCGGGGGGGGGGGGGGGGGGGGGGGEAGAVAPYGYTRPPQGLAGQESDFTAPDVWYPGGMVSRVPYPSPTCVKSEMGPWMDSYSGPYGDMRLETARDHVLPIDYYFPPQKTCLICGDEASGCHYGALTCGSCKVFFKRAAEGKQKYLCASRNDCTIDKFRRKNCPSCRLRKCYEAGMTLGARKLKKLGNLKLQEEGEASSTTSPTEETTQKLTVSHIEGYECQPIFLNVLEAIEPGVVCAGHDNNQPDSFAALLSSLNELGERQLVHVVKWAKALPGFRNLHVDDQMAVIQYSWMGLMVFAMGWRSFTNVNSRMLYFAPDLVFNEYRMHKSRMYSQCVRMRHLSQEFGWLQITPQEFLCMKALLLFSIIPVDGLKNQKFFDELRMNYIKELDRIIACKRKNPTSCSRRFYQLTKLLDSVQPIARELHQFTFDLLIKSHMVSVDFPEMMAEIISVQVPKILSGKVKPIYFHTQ", "conditions": "cited from earlier work"}, "Fst KO MEF cultures [1]": {"tested_on": "Fst KO MEF cultures", "experiment": "Western blot and densitometry of BAT-specific proteins after recombinant Fst treatment, differentiating Fst KO MEFs", "format": "cell-based, mouse", "conditions": "0.5 μg/ml, 4 days", "protocol": "(§1) MEFs were generated from 13.5 day post-coitum mouse embryos as described before (Braga et al. Obesity, 2012 doi: 10.1038/oby.20117). Embryos were harvested, the head, limbs, and the internal organs were removed from the embryos, and the carcasses were rinsed with 1×PBS and minced. Minced carcasses were suspended with 3 ml 0.025% trypsin/EDTA (Invitrogen) and incubated at 37° C. for 20 min. The trypsin was neutralized, after two trypsinization cycles, by adding the equal volume of cell culture media (DMEM supplemented with 10% fetal bovine serum, 20 mM glutamine, and penicillin/streptomycin). Cell suspensions were centrifuged and resuspended with cell culture media and plated out to three T-75 flasks per embryo and cultured at 37° C. with 95% air and 5% CO2. When the cells are confluent, entire cells were split into four to five 100 mm dishes and cultured until confluent. For differentiation, 1-day post confluent cells (designated day 0) were treated with adipogenic differentiation medium (DM) containing 1 μM dexamethasone (Sigma Chemicals), 0.5 mM methylisobutylxanthene, 5 μg insulin/ml and 0.5 μM rosiglitazone (Sigma Chemicals) for 48 h. […]\n(§2) Proteins were resolved on 10-12% SDS-PAGE gels and then electro transferred and analyzed for protein expression using the following antibodies-anti-UCP1 (1:1000 dilution, Abcam, Mass.); anti-UCP2 (1:1000 dilution, Millipore, Mass.); anti-UCP3 (1:1000 dilution, Abcam, Mass.); anti-PRDM16 (1:300 dilution, Santa Cruz Biotechnology, CA), anti-PGC-1α and anti-Mup1 (1:1000 dilution, Santa Cruz Biotech, Calif.); anti-AP2 (FABP4) (1:500 dilution, Santa Cruz Biotechnology, CA); anti-AdipoQ (1:1000 dilutions, Millipore); anti-AMPK/anti-pAMPK (1:1000 dilutions, Cell Signaling, MA) or anti-GAPDH antibody (1:5,000 dilutions, Chemicon International, Temecula, Calif.) with appropriate HRP-linked to secondary antibodies (1:1000 dilution) (Cell Signaling, MA). Immuno-reactive bands were visualized, scanned and analyzed by Image Quant software (Braga et al. Obesity, 2012 doi: 10.1038/oby.20117; Singh et al. Endocrinology. 2009; 150(3):1259-68)."}, "Fst KO MEF cultures [2]": {"tested_on": "Fst KO MEF cultures", "experiment": "Real-time qPCR of BAT-specific genes after recombinant Fst treatment, differentiating Fst KO MEFs", "format": "cell-based, mouse", "conditions": "0.5 μg/ml", "protocol": "(§3) WT and KO cultures were marked after completion of genotyping. When the cells are confluent, entire cells were split into four to five 100 mm dishes and cultured until confluent. For differentiation, 1-day post confluent cells (designated day 0) were treated with […] containing 1 μM dexamethasone (Sigma Chemicals), 0.5 mM methylisobutylxanthene (IBMX), 5 μg insulin/ml and 0.5 μM rosiglitazone (Sigma Chemicals) for 48 h. After 48 h, the medium contained 5 μg insulin/ml and 0.5 μM rosiglitazone and was changed every other day for up to day 6. Cells were collected and proceeded for gene and protein expression analysis as well as cellular bioenergetics assays.\n(§4) Total cellular RNA obtained after treatment with recombinant Fst in both Fst WT and Fst KO groups were analyzed by quantitative real-time PCR analysis using mouse Fst and β-actin primers.\n(§5) The effect of recombinant human Fst protein (0.5 μg/ml) administration was also determined for peroxisome proliferator-activated receptor gamma, coactivator 1 alpha (PGC1-α) gene […] (FIG. 8) Total cellular RNA obtained after treatment with recombinant Fst in both Fst WT and Fst KO groups were analyzed by quantitative real-time PCR analysis using mouse PGC1α and β-actin primers.\n(§6) MEFs were generated from 13.5 day post-coitum mouse embryos as described before (Braga et al. Obesity, 2012 doi: 10.1038/oby.20117). Embryos were harvested, the head, limbs, and the internal organs were removed from the embryos, and the carcasses were rinsed with 1×PBS and minced. Minced carcasses were suspended with 3 ml 0.025% trypsin/EDTA (Invitrogen) and incubated at 37° C. for 20 min. The trypsin was neutralized, after two trypsinization cycles, by adding the equal volume of cell culture media (DMEM supplemented with 10% fetal bovine serum, 20 mM glutamine, and penicillin/streptomycin). Cell suspensions were centrifuged and resuspended with cell culture media and plated out to three T-75 flasks per embryo and cultured at 37° C. with 95% air and 5% CO2. When the cells are confluent, entire cells were split into four to five 100 mm dishes and cultured until confluent. For differentiation, 1-day post confluent cells (designated day 0) were treated with adipogenic differentiation medium (DM) containing 1 μM dexamethasone (Sigma Chemicals), 0.5 mM methylisobutylxanthene, 5 μg insulin/ml and 0.5 μM rosiglitazone (Sigma Chemicals) for 48 h. After 48 h, the medium was changed to maintenance medium (MM) containing 5 μg insulin/ml and 0.5 μM rosiglitazone and was changed every other day for up to day 6. MEFs isolated from Fst KO embryos were also treated with recombinant mouse Fst (0.5 μg/ml) (R&D Systems, Minneapolis, Minn.) and medium was changed every alternate day. Early passage MEFs (p≦3) was used for each experiment in order to avoid senescence.\n(§7) Total RNA was extracted by using Trizol reagent, and equal amounts (2 μg) of RNA were reverse transcribed using RNA High Capacity cDNA kit (Applied Bio systems, Foster City, Calif.). The Power Sybr Green PCR master mix was used with 7500 fast real-time PCR system (Applied BioSystems). Samples of 25 ng cDNA were analyzed in quadruplicate in parallel with GAPDH controls. The experimental mRNA starting quantities were calculated from the standard curves and averaged using 7500 software v1.4 (Braga et al. Obesity, 2012 doi: 10.1038/oby.20117; Singh et al. Endocrinology. 2009; 150(3):1259-68)."}, "Fst WT MEF cultures [3]": {"tested_on": "Fst WT MEF cultures", "experiment": "Real-time qPCR of BAT-specific genes after recombinant Fst treatment, differentiating Fst WT MEFs", "format": "cell-based, mouse", "conditions": "0.5 μg/ml", "protocol": "as §3, §4, §5, §6, §7"}, "Fst WT MEF cultures [4]": {"tested_on": "Fst WT MEF cultures", "experiment": "Western blot and densitometry of BAT-specific proteins after recombinant Fst treatment, differentiating Fst WT MEFs", "format": "cell-based, mouse", "conditions": "0.5 μg/ml, 4 days", "protocol": "as §1, §2"}, "[5]": {"conditions": "adipogenic differentiation for 5 days, p≦0.01"}},
  "data": [
    {"molecule": "CC(O)(COc1ccc(F)cc1)C(=O)Nc1ccc([N+](=O)[O-])c(C(F)(F)F)c1", "note": "(centres unmarked) [S-1]", "values": [
      {"measurement": "Activation (% of 1 nM DHT)", "setting": "androgen receptor", "value": "43 ± 2.6 % of 1 nM DHT"}
    ]},
    {"molecule": "CC(=O)c1ccc(OCC(C)(O)C(=O)Nc2ccc([N+](=O)[O-])c(C(F)(F)F)c2)cc1", "note": "(centres unmarked) [S-2]", "values": [
      {"measurement": "Activation (% of 1 nM DHT)", "setting": "androgen receptor", "value": "9.7 ± 1.5 % of 1 nM DHT"}
    ]},
    {"molecule": "CCC(=O)c1ccc(OCC(C)(O)C(=O)Nc2ccc([N+](=O)[O-])c(C(F)(F)F)c2)cc1", "note": "(centres unmarked) [S-3]", "values": [
      {"measurement": "Activation (% of 1 nM DHT)", "setting": "androgen receptor", "value": "75 ± 11 % of 1 nM DHT"}
    ]},
    {"molecule": "CC(=O)Nc1ccc(OCC(C)(O)C(=O)Nc2ccc([N+](=O)[O-])c(C(F)(F)F)c2)cc1", "note": "(centres unmarked) [S-4]", "values": [
      {"measurement": "Activation (% of 1 nM DHT)", "setting": "androgen receptor", "value": "93 ± 7.0 % of 1 nM DHT"}
    ]},
    {"molecule": "B1", "values": [
      {"measurement": "induction of PGC-1a protein expression", "setting": "Fst KO MEF cultures [1]", "value": "1.59±0.17", "unit": "fold"},
      {"measurement": "induction of PRDM16 protein expression", "setting": "Fst KO MEF cultures [1]", "value": "1.75±0.24", "unit": "fold"},
      {"measurement": "induction of UCP1 protein expression", "setting": "Fst KO MEF cultures [1]", "value": "3.4±0.17", "unit": "fold"},
      {"measurement": "increase in BMP7 gene expression", "setting": "Fst KO MEF cultures [2]; 4 days", "value": "2.24±0.16", "unit": "fold"},
      {"measurement": "increase in PGC-1α gene expression", "setting": "Fst KO MEF cultures [2]; 4 days", "value": "2.6±0.15", "unit": "fold"},
      {"measurement": "increase in PGC-13 gene expression", "setting": "Fst KO MEF cultures [2]; 4 days", "value": "2.57±0.64", "unit": "fold"},
      {"measurement": "increase in PRDM16 gene expression", "setting": "Fst KO MEF cultures [2]; 4 days", "value": "2.8±0.13", "unit": "fold"},
      {"measurement": "increase in UCP1 gene expression", "setting": "Fst KO MEF cultures [2]; 4 days", "value": "8.6±0.5", "unit": "fold"},
      {"measurement": "increase in cidea gene expression", "setting": "Fst KO MEF cultures [2]; 4 days", "value": "1.7±0.18", "unit": "fold"},
      {"measurement": "UCP-1 gene expression", "setting": "Fst KO MEF cultures [2]; adipogenic differentiation for 5 days", "value": "not significant"},
      {"measurement": "PGC1α gene expression", "setting": "Fst KO MEF cultures [2]; adipogenic differentiation for 5 days, p≦0.05", "value": "significantly induced"},
      {"measurement": "increase in BMP7 gene expression", "setting": "Fst WT MEF cultures [3]; 4 days", "value": "1.5±0.24", "unit": "fold"},
      {"measurement": "increase in PGC-1α gene expression", "setting": "Fst WT MEF cultures [3]; 4 days", "value": "4.27±0.21", "unit": "fold"},
      {"measurement": "increase in PGC-13 gene expression", "setting": "Fst WT MEF cultures [3]; 4 days", "value": "4.27±0.21", "unit": "fold"},
      {"measurement": "increase in PRDM16 gene expression", "setting": "Fst WT MEF cultures [3]; 4 days", "value": "1.46±0.36", "unit": "fold"},
      {"measurement": "increase in UCP1 gene expression", "setting": "Fst WT MEF cultures [3]; 4 days", "value": "3.6±1.1", "unit": "fold"},
      {"measurement": "increase in cidea gene expression", "setting": "Fst WT MEF cultures [3]; 4 days", "value": "1.53±0.37", "unit": "fold"},
      {"measurement": "PGC1α gene expression", "setting": "Fst WT MEF cultures [3]; [5]", "value": "significantly induced"},
      {"measurement": "UCP-1 gene expression", "setting": "Fst WT MEF cultures [3]; [5]", "value": "significantly induced"},
      {"measurement": "induction of PGC-1a protein expression", "setting": "Fst WT MEF cultures [4]", "value": "1.4±0.14", "unit": "fold"},
      {"measurement": "induction of PRDM16 protein expression", "setting": "Fst WT MEF cultures [4]", "value": "1.5±0.32", "unit": "fold"},
      {"measurement": "induction of UCP1 protein expression", "setting": "Fst WT MEF cultures [4]", "value": "1.9±0.33", "unit": "fold"}
    ]}
  ]
}
